This is an account of results in PMC9710872.

In the assay the target is SARS-CoV-2 spike (S) protein, unlabelled (ACROBiosystems) (SARS-CoV-2) (UniProt P0DTC2). Kind of assay: SPR. Background: Surface plasmon resonance follows binding to a sensor surface in real time, without labels.

“recombinant NRP1 (ACROBiosystems), SPR analyte (from UniProt O14786) (natural protein)” gave a Kd of 89.4 nM.

For orientation: Kd means the constant that tells how readily two partners part at equilibrium.
